Measurements published in patent publication US20260250420A1 (SICHUAN KELUN BIOTECH BIOPHARMACEUTICAL, published 2026).

T1: monkey PTK7 protein (extracellular sequence of monkey PTK7 with C-terminal 6×His tag) (monkey)
T1 chain: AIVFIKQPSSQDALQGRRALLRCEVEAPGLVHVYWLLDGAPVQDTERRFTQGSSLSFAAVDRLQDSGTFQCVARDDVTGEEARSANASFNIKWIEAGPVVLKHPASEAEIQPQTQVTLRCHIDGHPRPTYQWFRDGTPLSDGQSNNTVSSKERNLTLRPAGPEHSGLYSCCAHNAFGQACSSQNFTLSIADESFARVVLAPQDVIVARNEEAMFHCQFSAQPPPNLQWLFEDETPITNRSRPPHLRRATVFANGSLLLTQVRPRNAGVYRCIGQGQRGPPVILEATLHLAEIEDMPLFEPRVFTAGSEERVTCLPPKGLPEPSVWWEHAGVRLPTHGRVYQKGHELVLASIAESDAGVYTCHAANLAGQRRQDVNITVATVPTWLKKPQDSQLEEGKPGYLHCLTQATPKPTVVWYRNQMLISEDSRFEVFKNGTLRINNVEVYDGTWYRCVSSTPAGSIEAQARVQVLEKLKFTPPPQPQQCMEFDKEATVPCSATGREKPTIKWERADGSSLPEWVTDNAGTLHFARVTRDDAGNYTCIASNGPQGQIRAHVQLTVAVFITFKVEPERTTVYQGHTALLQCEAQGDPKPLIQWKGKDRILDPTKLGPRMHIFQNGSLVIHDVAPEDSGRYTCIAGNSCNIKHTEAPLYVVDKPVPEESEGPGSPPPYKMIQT

T2: human PTK7 on cells (tumor cells endogenously expressing PTK7); CHO-hPTK7, CHO-S-hPTK7 and 293T-hPTK7 … (human, UniProt Q13308 31-1070)
T2 construct: whole, on cells; The cell line of each value is named under assay; also called H1299; H358
T2 sequence (looked up): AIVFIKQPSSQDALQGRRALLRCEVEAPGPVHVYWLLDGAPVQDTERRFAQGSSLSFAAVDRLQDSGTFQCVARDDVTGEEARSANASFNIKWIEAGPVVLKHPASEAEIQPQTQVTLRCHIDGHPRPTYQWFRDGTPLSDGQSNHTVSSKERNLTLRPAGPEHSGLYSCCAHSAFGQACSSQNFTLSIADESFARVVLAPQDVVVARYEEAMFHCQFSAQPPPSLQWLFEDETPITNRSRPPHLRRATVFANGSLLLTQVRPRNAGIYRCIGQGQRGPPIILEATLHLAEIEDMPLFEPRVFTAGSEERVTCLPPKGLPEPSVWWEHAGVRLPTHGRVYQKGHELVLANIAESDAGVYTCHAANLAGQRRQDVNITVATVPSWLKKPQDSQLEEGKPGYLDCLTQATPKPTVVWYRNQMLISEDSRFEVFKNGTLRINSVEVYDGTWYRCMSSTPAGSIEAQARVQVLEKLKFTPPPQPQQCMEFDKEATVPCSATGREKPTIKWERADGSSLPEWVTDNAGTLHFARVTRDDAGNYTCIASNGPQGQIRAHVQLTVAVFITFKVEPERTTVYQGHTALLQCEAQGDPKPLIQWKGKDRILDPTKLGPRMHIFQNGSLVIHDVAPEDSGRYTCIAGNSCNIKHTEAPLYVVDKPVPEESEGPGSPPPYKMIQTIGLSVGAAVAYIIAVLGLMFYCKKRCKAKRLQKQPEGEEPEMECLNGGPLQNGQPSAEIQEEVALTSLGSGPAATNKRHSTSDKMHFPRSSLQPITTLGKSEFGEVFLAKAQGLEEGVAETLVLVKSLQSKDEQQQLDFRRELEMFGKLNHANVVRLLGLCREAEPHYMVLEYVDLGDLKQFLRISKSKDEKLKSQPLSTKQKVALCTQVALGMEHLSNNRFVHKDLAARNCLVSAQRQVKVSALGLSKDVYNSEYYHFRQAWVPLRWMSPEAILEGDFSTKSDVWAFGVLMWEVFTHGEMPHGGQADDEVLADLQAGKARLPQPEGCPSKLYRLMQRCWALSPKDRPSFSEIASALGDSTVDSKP

T3: human PTK7 protein (extracellular sequence of human PTK7 with C-terminal 6×His tag) (human, UniProt Q13308 31-704)
T3 construct: extracellular domain; Expressed transiently in HEK293 cells; also called human PTK7-His; human PTK7-His protein
T3 sequence: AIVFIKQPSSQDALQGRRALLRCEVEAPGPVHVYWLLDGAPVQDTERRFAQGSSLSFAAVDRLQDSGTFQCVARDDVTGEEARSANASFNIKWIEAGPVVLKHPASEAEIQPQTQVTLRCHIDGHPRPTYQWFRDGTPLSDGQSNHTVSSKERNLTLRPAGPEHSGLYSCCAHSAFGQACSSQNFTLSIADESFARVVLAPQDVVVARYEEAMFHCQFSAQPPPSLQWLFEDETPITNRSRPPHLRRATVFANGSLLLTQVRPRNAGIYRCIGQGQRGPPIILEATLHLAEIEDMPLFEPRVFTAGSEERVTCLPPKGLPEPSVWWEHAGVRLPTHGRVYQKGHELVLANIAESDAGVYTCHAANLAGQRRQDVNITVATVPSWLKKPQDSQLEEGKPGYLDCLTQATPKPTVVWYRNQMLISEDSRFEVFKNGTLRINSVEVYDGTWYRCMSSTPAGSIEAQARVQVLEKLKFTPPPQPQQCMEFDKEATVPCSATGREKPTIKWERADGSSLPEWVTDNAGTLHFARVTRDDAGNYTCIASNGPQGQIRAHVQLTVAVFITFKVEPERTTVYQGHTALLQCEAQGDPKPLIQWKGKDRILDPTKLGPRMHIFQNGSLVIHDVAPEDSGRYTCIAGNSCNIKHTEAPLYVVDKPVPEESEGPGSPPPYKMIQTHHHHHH


How the values were obtained:
[1] = molecular target: T1, monkey PTK7 protein (extracellular …); assay: ELISA, coated monkey PTK7 protein 1 µg/ml
Protocol: (§1) Original data was imported into software for nonlinear curve fitting, and EC₅₀ of binding of each antibody to human PTK7 and monkey PTK7 was calculated, respectively. As shown in Table 1 and FIGS. 1A-1B, the screened antibodies could be bound to the human and monkey PTK7 proteins with affinity higher than that of the control antibody Hu24.

[2] = molecular target: T2, human PTK7 on cells (tumor cells …); assay: flow cytometry on H1299 cells endogenously expressing PTK7
[3] = molecular target: T3, human PTK7 protein (extracellular …); assay: ELISA, coated human PTK7 protein 1 µg/ml
Protocol: as §1

[4] = molecular target: T3, human PTK7 protein (extracellular …); assay: ELISA, coated human PTK7-His protein 1 µg/ml
Protocol: The original data was imported into software for nonlinear curve fitting, and the EC₅₀ of binding of each antibody to the human PTK7 was calculated, respectively.

[5] = molecular target: T2, human PTK7 on cells (tumor cells …); assay: flow cytometry on H1299 cells
Source text: A flow cytometer (Beckman, Cytoflex) was used for detecting the affinity of the anti-human PTK7 chimeric and humanized antibodies with human non-small cell lung cancer cells H1299, human lung adenocarcinoma cells H1975, human breast cancer cells T47D, human ovarian cancer cells OVCAR-3 (all purchased from NANJING COBIOER BIOSCIENCES CO., LTD) and CHO-hPTK7 overexpression cells.
The adherent cells were digested by using a pancreatin (Gibco) solution; a proper amount of cells were counted and taken, washed twice by using 1×PBS, and re-suspended in a 1% BSA solution; and then the cells were transferred into a 96-well deep plate at a density of 50 μl/well; a candidate antibody was diluted by using 1% BSA, then 50 μl of diluted antibody was added into the deep plate containing the cells, and incubated for 40 min at 4° C.; the cells were washed twice by using PBS, then 50 μl of diluted secondary antibody was added into each well, uniformly mixed, and incubated for 30 min at 4° C.; and the cells were washed twice by using PBS, then re-suspended in 400 μl of PBS, and subjected to examination by flow cytometer.

[6] = molecular target: T2, human PTK7 on cells (tumor cells …); assay: flow cytometry on H358 cells endogenously expressing PTK7

Row | EC50 [1] [µg/mL] | EC50 [2] [µg/mL] | EC50 [3] [µg/mL] | EC50 [6] [µg/mL] | Binder | further results
1 | 0.0187 | 0.245 | 0.0131 | – | 101A6 (anti-human PTK7 murine antibody) (antibody, V domains shown, Murine antibody purified from hybridoma supernatant on Protein A) VH: EVKLVESGGGLVQPGGSLSLSCAASGFTFTDYYLSWVRQPPGKALEWLALIRNKANGYTTEYSASVKGRFTISRDSSQSILYLQMDALRAEDSATYYCARDTLAAYWGQGTSVTVSS VL: DIVMTQSHKFMSTSVGDRVSFTCKASQDVGSAVIWYQQKPGQSPKLLIYWASTRHTGVPDRFTGSGSGTDFTLTISNVQSEDLADYFCQQYSSYPLTFGAGTKLEIK | –
2 | – | – | – | – | 101A6-CH (anti-human PTK7 chimeric antibody of 101A6) (antibody, human IgG1, kappa, V domains shown, The label '-CH' is not defined in words) VH: EVKLVESGGGLVQPGGSLSLSCAASGFTFTDYYLSWVRQPPGKALEWLALIRNKANGYTTEYSASVKGRFTISRDSSQSILYLQMDALRAEDSATYYCARDTLAAYWGQGTSVTVSS VL: DIVMTQSHKFMSTSVGDRVSFTCKASQDVGSAVIWYQQKPGQSPKLLIYWASTRHTGVPDRFTGSGSGTDFTLTISNVQSEDLADYFCQQYSSYPLTFGAGTKLEIKR | EC50 [4]: 0.0316 µg/mL; EC50 [5]: 0.158 µg/mL
3 | 0.0168 | 0.21 | 0.0113 | – | 8H3 (anti-human PTK7 murine antibody) (antibody, V domains shown, Murine antibody purified from hybridoma supernatant on Protein A) VH: EVKLVESGGGLVQPGGSLSLSCAASGFTFTDYYMSWVRQPPGKALEWLALIRNKANGYTTEYSASVKGRFTISRDNSQSILYLQMNALRAEDSATYYCARDSFEVYWGQGTLVTVSA VL: DIVLTQSHKFMSTSVGDRVNITCKASQDVGTAVAWYQQKPGQSPKLLIYWASTRHTGVPDRFTGSGSGTDFTLTIRNVQSEDLADYFCQQFSSFPFTFGGGTKLEIK | –
4 | – | – | – | 0.0583 | 19C2 (anti-human PTK7 murine antibody) (antibody, V domains shown, Murine antibody purified from hybridoma supernatant on Protein A) VH: QVTLKESGPGILKPSQTLSLTCSFSGFSLTTSGMGINWIRQPSGKGLEWLALIWWDDDKYYNPSLKNRLTVSKDPSRNQVFLTITSVDTTDSATYYCARSLITTAPSDYWGQGTSVTVSS VL: DIVMTQSQKFMSTSVGDRVSITCKASQNVGTAITWYQQRPGQSPQLLIYSASNRYTGVPDRFTGSGSGTDFTLTISNLQSEDLADYFCLQYSDYPLTFGAGTNLELK | –
5 | – | – | – | 0.035 | 4E12 (anti-human PTK7 murine antibody) (antibody, V domains shown, Murine antibody purified from hybridoma supernatant on Protein A) VH: QVQLQQSGAELMRPGVSVKISCKGSGYTFTDYAMHWVKQNHAKSLEWIGVISTYYGNVSYNQKFKGKATMTVDKSSSTAYMELARLTSEDSAIYYCARGFAYWGQGTLVTVSA VL: DIVITQDELSNLVTSGESVSISCRSSKSLQKKDGKTYLNWFLQRPGQSPQLLIYLMSTRASGVSDRFSGSGSGTDFTLEISRVKAEDVGVYYCQQLVEYPFTFGSGTKLEIK | –
6 | 0.0158 | 0.0875 | 0.0218 | – | 57F4 (anti-human PTK7 murine antibody) (antibody, V domains shown, Murine antibody purified from hybridoma supernatant on Protein A) VH: EVQLVESGGGLVKPGGSRKLSCAASGFTFSDYGMHWVRQAPEKGLEWVAYISSGSSALYYADTVKGRFTISRDNVKNTLFLQMTSLRSEDTAMYYCARRSYYSYFAYWGQGTLVTVSA VL: QIVLTQSPALMAASPGEKVTITCRVSSSISSSTLHWYQQKSETSPKPWIYGTSNLASGVPVRFSGSGSGTSYSLTISSMEAEDAATYYCQQWSSFPFTFGSGTKLEIK | –
7 | – | – | – | 0.0441 | 4B12 (anti-human PTK7 murine antibody) (antibody, V domains shown, Murine antibody purified from hybridoma supernatant on Protein A) VH: QVTLKESGPGILKPAQTLSLTCSFSGFSLSTSGMGVGWIRQPSGKGLEWLAHIWWDDDKHYNPSLKSRLTISKDASRNQVFLRISSVDTADTATYYCVRSNYGYDWFAYWGQGTLVTVSA VL: DIKMTQSPSSMYVSLGERVTITCKASQDINTYLGWFQQKPGKSPKTLIYRANRLVDGVPSRFSGSGSGQDYSLTISSLEYEDMEIYYCLQYDEFPLTFGAGTKLEIK | –
8 | – | – | – | – | 64A10-CH (anti-human PTK7 chimeric antibody of 64A10) (antibody, human IgG1, kappa, V domains shown, The label '-CH' is not defined in words) VH: QVQLKESGPVLVAPSQSLSITCTVSGFSLTSYGVYWVRQPPGKGPEWLGVIWTSGNTNYNSALMSRLSISKDNSKSQVFLKMNSLQTDDTAMYYCVKHDGGNYVGVMNYWGQGTSVTVSS VL: DIQMTQSPATLSVTPGDRVSLSCRASQSISDYLHWYQQKSQESPRLLIKYASQSISGIPSRFSGSGSGSDFTLSINSVEPEDVGVYYCQNGHSFPPTFGGGTKLEIKR | EC50 [4]: 0.0258 µg/mL; EC50 [5]: 0.355 µg/mL
9 | 0.00765 | – | 0.0132 | – | 64A10 (anti-human PTK7 murine antibody) (antibody, V domains shown, Murine antibody purified from hybridoma supernatant on Protein A) VH: QVQLKESGPVLVAPSQSLSITCTVSGFSLTSYGVYWVRQPPGKGPEWLGVIWTSGNTNYNSALMSRLSISKDNSKSQVFLKMNSLQTDDTAMYYCVKHDGGNYVGVMNYWGQGTSVTVSS VL: DIQMTQSPATLSVTPGDRVSLSCRASQSISDYLHWYQQKSQESPRLLIKYASQSISGIPSRFSGSGSGSDFTLSINSVEPEDVGVYYCQNGHSFPPTFGGGTKLEIK | –
